Patent US20110300138A1 (published 2011)

Legend:
[1] = target: T1, human TSH receptor (full length), coated on tubes (human, UniProt P16473 22-764); test: competition with 125I-K1-18 IgG on TSHR coated tubes; 0.01 µg/mL, diluted in assay buffer
T1 construct: TSHR coated tubes as described in WO2004/050708A2; Exact preparation on the tubes is not detailed here; also called thyroid stimulating hormone receptor
Experimental: (§1) Binding inhibition assays were carried out using TSHR coated tubes as described in WO2004/050708A2. […] After aspiration, the tubes were washed and 100 μL of ¹²⁵I-labelled protein (5×10⁴ cpm) added and incubated for 1 hour at room temperature with shaking. The tubes were then aspirated, washed and counted in a gamma counter. Inhibition of labelled protein binding was calculated as 100×[1−(cpm bound in the presence of test material/cpm bound in the presence of control material)].

[2] = target: T1, human TSH receptor (full length), …; test: competition with 125I-K1-18 IgG on TSHR coated tubes; 10 µg/mL, diluted in assay buffer
Experimental: as §1

[3] = target: T1, human TSH receptor (full length), …; test: competition with 125I-K1-18 IgG on TSHR coated tubes; 10 µg/mL, diluted in HBD serum pool
Experimental: as §1

[4] = target: T1, human TSH receptor (full length), …; test: competition with 125I-K1-18 IgG on TSHR coated tubes; 0.03 µg/mL, diluted in assay buffer
Experimental: as §1

[5] = target: T1, human TSH receptor (full length), …; test: competition with 125I-K1-18 IgG on TSHR coated tubes; 30 µg/mL, diluted in HBD serum pool
Experimental: as §1

[6] = target: T1, human TSH receptor (full length), …; test: competition with 125I-K1-18 IgG on TSHR coated tubes; 0.001 µg/mL, diluted in HBD serum pool
Experimental: as §1

[7] = target: T1, human TSH receptor (full length), …; test: competition with 125I-K1-18 IgG on TSHR coated tubes; 100 µg/mL, diluted in assay buffer
Experimental: as §1

[8] = target: T1, human TSH receptor (full length), …; test: competition with 125I-K1-18 IgG on TSHR coated tubes; 1 µg/mL, diluted in HBD serum pool
Experimental: as §1

[9] = target: T1, human TSH receptor (full length), …; test: competition with 125I-K1-18 IgG on TSHR coated tubes; 0.3 µg/mL, diluted in HBD serum pool
Experimental: as §1

[10] = target: T1, human TSH receptor (full length), …; test: competition with 125I-K1-18 IgG on TSHR coated tubes; 3 µg/mL, diluted in assay buffer
Experimental: as §1

[11] = target: T1, human TSH receptor (full length), …; test: competition with 125I-K1-18 IgG on TSHR coated tubes; 0.003 µg/mL, diluted in assay buffer
Experimental: as §1

[12] = target: T1, human TSH receptor (full length), …; test: competition with 125I-K1-18 IgG on TSHR coated tubes; 0.003 µg/mL, diluted in HBD serum pool
Experimental: as §1

[13] = target: T1, human TSH receptor (full length), …; test: competition with 125I-K1-18 IgG on TSHR coated tubes; 0.1 µg/mL, diluted in assay buffer
Experimental: as §1

[14] = target: T1, human TSH receptor (full length), …; test: competition with 125I-K1-18 IgG on TSHR coated tubes; 0.001 µg/mL, diluted in assay buffer
Experimental: as §1

[15] = target: T1, human TSH receptor (full length), …; test: competition with 125I-K1-18 IgG on TSHR coated tubes; 0.01 µg/mL, diluted in HBD serum pool
Experimental: as §1

[16] = target: T1, human TSH receptor (full length), …; test: competition with 125I-K1-18 IgG on TSHR coated tubes; 0.3 µg/mL, diluted in assay buffer
Experimental: as §1

[17] = target: T1, human TSH receptor (full length), …; test: competition with 125I-K1-18 IgG on TSHR coated tubes; 0.1 µg/mL, diluted in HBD serum pool
Experimental: as §1

[18] = target: T1, human TSH receptor (full length), …; test: competition with 125I-K1-18 IgG on TSHR coated tubes; 1 µg/mL, diluted in assay buffer
Experimental: as §1

[19] = target: T1, human TSH receptor (full length), …; test: competition with 125I-K1-18 IgG on TSHR coated tubes; 0.03 µg/mL, diluted in HBD serum pool
Experimental: as §1

[20] = target: T1, human TSH receptor (full length), …; test: competition with 125I-K1-18 IgG on TSHR coated tubes; 30 µg/mL, diluted in assay buffer
Experimental: as §1

[21] = target: T1, human TSH receptor (full length), …; test: competition with 125I-K1-18 IgG on TSHR coated tubes; 3 µg/mL, diluted in HBD serum pool
Experimental: as §1

[22] = target: T1, human TSH receptor (full length), …; test: competition with 125I-K1-18 IgG on TSHR coated tubes; 100 µg/mL, diluted in HBD serum pool
Experimental: as §1

| Binder | Inhibition of binding (%) [1] [%] | Inhibition of binding (%) [2] [%] | Inhibition of binding (%) [3] [%] | Inhibition of binding (%) [4] [%] | Inhibition of binding (%) [5] [%] | Inhibition of binding (%) [6] [%] | Inhibition of binding (%) [7] [%] | Inhibition of binding (%) [8] [%] | Inhibition of binding (%) [9] [%] | Inhibition of binding (%) [10] [%] | Inhibition of binding (%) [11] [%] | Inhibition of binding (%) [12] [%] | Inhibition of binding (%) [13] [%] | Inhibition of binding (%) [14] [%] | Inhibition of binding (%) [15] [%] | Inhibition of binding (%) [16] [%] | Inhibition of binding (%) [17] [%] | Inhibition of binding (%) [18] [%] | Inhibition of binding (%) [19] [%] | Inhibition of binding (%) [20] [%] | further results |
| --- | --- | --- | --- | --- | --- | --- | --- | --- | --- | --- | --- | --- | --- | --- | --- | --- | --- | --- | --- | --- | --- |
| K1-18 IgG (antibody, V domains shown) VH: EVQLVQSGAEVKKPGESLKISCKGSGYSFTNYWIGWVRQMPGKGLEWMGIIYPYDSDTRYSPSFEGQVTISADKSIRTAYLHWSSLKASDTAMYYCVRPRDGSYPYDAFDIWGQGTMVTVSS VL: EIVLTQSPGTLSLSPGERATLSCRASQSVSNNYLAWYQQKPGQAPRLLIYGASSRATGIPDRFSGSGSGTDFTLTISRLEPEDFAVYYCQHCGSSLRAFGQGTKVEIKR | 14.9 | 92.5 | 94 | 39.3 | 95.6 | 2.7 | 94.5 | 91.1 | 78.3 | 93 | 2.9 | -0.3 | 78.9 | 6.9 | 5.8 | 90.9 | 49.4 | 92.8 | 15.1 | 93.8 | Inhibition of binding (%) [21]: 94%; Inhibition of binding (%) [22]: 96.1% |
| K1-18 Fab (Fab, V domains shown) VH: EVQLVQSGAEVKKPGESLKISCKGSGYSFTNYWIGWVRQMPGKGLEWMGIIYPYDSDTRYSPSFEGQVTISADKSIRTAYLHWSSLKASDTAMYYCVRPRDGSYPYDAFDIWGQGTMVTVSS VL: EIVLTQSPGTLSLSPGERATLSCRASQSVSNNYLAWYQQKPGQAPRLLIYGASSRATGIPDRFSGSGSGTDFTLTISRLEPEDFAVYYCQHCGSSLRAFGQGTKVEIKR | 8.8 | 81.8 | 83 | 24.8 | 85 | -1 | 86.2 | 80.2 | 65.5 | 81.9 | 0.8 | 1 | 56.7 | -2.6 | 1.8 | 71.1 | 39 | 77.5 | 10.3 | 83 | Inhibition of binding (%) [21]: 83.4%; Inhibition of binding (%) [22]: 84.8% |
| K1-70 IgG (antibody, V domains shown) VH: EVQLVQSGAEVKKPGQSLKISCKASGYSLTDNWIGWVRQKPGKGLEWMGIIYPGDSDTRYSPSFQGQVTISADKSINTAYLQWSSLKASDTAIYYCVGLDWNYNPLRYWGPGTLVTVSS VL: QSVLTQPPSVSAAPGQKVTISCSGSSSDIGSNYVSWYQQFPGTAPKLLIYDNNKRPSAIPDRFSGSKSGTSATLGITGLQTGDEADYYCGTWDSRLGIAVFGGGTQLTVLG | 6.8 | 91.9 | 95.1 | 45.6 | 93.9 | 0 | 94.5 | 92.9 | 82.2 | 92.9 | 0.1 | 2.1 | 89.2 | -1.7 | 6.1 | 91.5 | 55.6 | 92 | 17.8 | 93.1 | Inhibition of binding (%) [21]: 94.1%; Inhibition of binding (%) [22]: 95.3% |
| K1-70 Fab (Fab, V domains shown) VH: EVQLVQSGAEVKKPGQSLKISCKASGYSLTDNWIGWVRQKPGKGLEWMGIIYPGDSDTRYSPSFQGQVTISADKSINTAYLQWSSLKASDTAIYYCVGLDWNYNPLRYWGPGTLVTVSS VL: QSVLTQPPSVSAAPGQKVTISCSGSSSDIGSNYVSWYQQFPGTAPKLLIYDNNKRPSAIPDRFSGSKSGTSATLGITGLQTGDEADYYCGTWDSRLGIAVFGGGTQLTVLG | 25.6 | 92.4 | 92.6 | 68.8 | 91.8 | -3.2 | 93.3 | 92.1 | 88.1 | 91.1 | 4.1 | 3.7 | 87.6 | -3.9 | 16.2 | 89.6 | 75.2 | 91 | 35 | 92.2 | Inhibition of binding (%) [21]: 92.8%; Inhibition of binding (%) [22]: 92.5% |
